# Experimental data from publication doi:10.1101/2024.12.25.630315 (bioRxiv, 2024).
# Key:
# Nectin-4 [1] = target: T1, Nectin-4 (Homo sapiens, UniProt Q96NY8); test: [^68Ga]AJ647 binding to SCaBER cells with and without EV; details: SCaBER cells (Nectin-4 positive); EV 60 nM for 15 min; P<0.0001
# T1 construct: host or cells: HT1376, SCaBER, T24, RT112, UC9, UC14 urothelial carcinoma cells; HT1376 xenografts in NSG mice
# T1 sequence (Q96NY8 32-510): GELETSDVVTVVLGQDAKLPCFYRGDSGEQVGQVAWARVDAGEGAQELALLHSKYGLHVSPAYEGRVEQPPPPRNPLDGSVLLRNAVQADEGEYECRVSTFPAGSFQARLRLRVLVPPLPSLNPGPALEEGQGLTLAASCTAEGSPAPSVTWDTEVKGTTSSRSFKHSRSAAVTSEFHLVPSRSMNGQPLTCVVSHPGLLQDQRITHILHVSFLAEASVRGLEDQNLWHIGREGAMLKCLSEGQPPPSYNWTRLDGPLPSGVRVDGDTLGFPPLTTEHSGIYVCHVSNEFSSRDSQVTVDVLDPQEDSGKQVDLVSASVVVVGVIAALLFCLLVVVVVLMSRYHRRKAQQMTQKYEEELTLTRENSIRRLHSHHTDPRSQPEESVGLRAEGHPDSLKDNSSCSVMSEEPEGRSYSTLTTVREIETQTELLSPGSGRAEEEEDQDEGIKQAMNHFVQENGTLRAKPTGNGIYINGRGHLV
# Nectin-4 [2] = target: T1, Nectin-4; test: In vivo Nectin-4 engagement by EV, HT1376 tumors (ex vivo biodistribution of [^68Ga]AJ647); parameters: species or system mouse; details: NSG mice, single i.v. dose of EV (15 mg/kg in text, 20 mpk in legend/methods) 24 hours before tracer, ex vivo biodistribution 60 min, n=5, P < 0.0001
# Method: To validate imaging studies, ex vivo biodistribution studies were conducted in mice with tumors of size 100–200 mm^3. Mice received ~50 μCi (1.85 MBq) of [^68Ga]AJ647 in […] of 5% ethanol in saline intravenously and mice were sacrificed at 5–180 min after [^68Ga]AJ647 injection for pharmacokinetic evaluation (n=4 per timepoint). In all other studies, 60 min time-point was chosen. Selected tissues (Blood, Skin, Muscle, Bone, Salivary glands, Tumor, Lungs, Heart, Liver, Pancreas, Spleen, Kidneys, Bladder, Testicles) were collected, weighed, counted, and their %IA/g values calculated as described previously (PMID: 37793856). For EV pharmacodynamics studies, fewer organs were harvested to accommodate more number of mice.
# Male NSG mice were implanted subcutaneously with HT1376 and SCaBER cells (4 million each) on the right and left rostral end, respectively. On day 25 after cell inoculation (average tumor volume=200±35 mm^3), mice were randomized and treated with a single dose of either saline or 20 mpk EV ADC injected intravenously (volume not exceeding 300 μL) or with 200 μL saline (n=7/group). 24 hours following the EV dose, [^68Ga]AJ647 PET scans (n=2/group) were acquired and ex vivo biodistribution (n=5/group) was performed using the protocols mentioned above.
# Nectin-4 [3] = target: T1, Nectin-4; test: EV dose-time Nectin-4 pharmacodynamics by [^68Ga]AJ647 PET, HT1376 tumors; assay type: in vivo, mouse
# Method: Mice with tumor volume of ~100–150 mm^3 were injected with ~[…] (7.4 MBq) of [^68Ga]AJ647 in […] of 5% ethanol in saline intravenously and anesthetized under 2.5% isoflurane. PET-CT images were acquired at 60 minutes after radiotracer injection at 5 min/bed in an ARGUS small-animal PET/CT scanner (Sedecal, Madrid, Spain) as described (n=3 unless otherwise noted). PET-MR images were acquired on a simultaneous 7T Bruker PET-MR scanner. Dynamic imaging was conducted to evaluate pharmacokinetics of [^68Ga]AJ647. [^68Ga]AJ647 was injected (with help of catheter) after mice was anesthetized under 2.5% isoflurane on the equipment bed. All PET data were reconstructed using the two-dimensional ordered subsets-expectation maximization algorithm (2D-OSEM) and corrected for radioactive decay and dead time. The SUV values were calculated by finding percent of injected activity (%IA) based on a calibration factor obtained from a known radioactive quantity, then normalizing by mice weight. Amide software was used to derive SUV values by drawing region of interest to closely fit tumors. For change in accessible Nectin-4 levels following EV treatment, ΔSUV was calculated by subtracting baseline (pre-treatment) uptake from post-therapy uptake of [^68Ga]AJ647. Target engagement was quantified by normalizing this change by initial SUV in same subject controls. Image fusion, visualization, and 3D rendering were accomplished using Amira 2020.3.1® (FEI, Hillsboro, OR). The dose-time pharmacodynamics of Nectin-4 following EV treatment was studied at doses 6, 9 and 15 mpk. Experiment involving PET imaging was performed first. Male NSG mice were inoculated with 4 million HT1376 cells at day 0. On day 23 (average tumor volume=150±30 mm^3), mice were randomized to receive either saline, or a single dose of 6, 9 or 15 mpk EV intravenously (n=3 for each dose and n=2 for saline). Mice (n=2) from each dose group and saline were imaged on day 1, 3 and 6 following EV treatment. Once PET imaging results were analyzed, ex vivo distribution experiment was performed with n=16–18 for each dose and n=10 for saline. Treated mice (n=8–9 per dose per time-point) along with saline controls (n=5 per time-point) were sacrificed on day 1 and day 6. Biodistribution studies were performed at 60-minute after [68Ga]AJ647 injection as described above.
substance,measurement,setting,value
enfortumab vedotin [EV],effect of EV on [^68Ga]AJ647 binding,Nectin-4 [1],significantly reduced
same,reduction in [^68Ga]AJ647 uptake in EV-treated tumors compared to controls,Nectin-4 [2],84%
same,Nectin-4 engagement by EV ([^68Ga]AJ647 PET tumor uptake),"Nectin-4 [3]; day 1, all EV doses (6, 9, 15 mg/kg single i.v.)",full occupancy
same,Nectin-4 engagement by EV ([^68Ga]AJ647 PET tumor uptake),"Nectin-4 [3]; day 3, 6 mg/kg",increase in [^68Ga]AJ647 uptake
same,Nectin-4 engagement by EV ([^68Ga]AJ647 PET tumor uptake),"Nectin-4 [3]; day 3, 9 and 15 mg/kg",sustained target engagement
same,Nectin-4 engagement by EV ([^68Ga]AJ647 PET tumor uptake),"Nectin-4 [3]; day 6, 6 mg/kg",significant increase in [^68Ga]AJ647 uptake
same,Nectin-4 engagement by EV ([^68Ga]AJ647 PET tumor uptake),"Nectin-4 [3]; day 6, 9 mg/kg",partial engagement
same,Nectin-4 engagement by EV ([^68Ga]AJ647 PET tumor uptake),"Nectin-4 [3]; day 6, 15 mg/kg",persistent high-level engagement
